Positions count from the first letter of the chain named.
T1: human LAG-3 (human, UniProt P18627 23-450, limits assumed)
T1 construct: Selections used human LAG-3-Fc, human LAG-3-6His, a 30 aa LAG-3 peptide and/or cells with cynomolgus LAG-3; also called CD223
T1 sequence (looked up): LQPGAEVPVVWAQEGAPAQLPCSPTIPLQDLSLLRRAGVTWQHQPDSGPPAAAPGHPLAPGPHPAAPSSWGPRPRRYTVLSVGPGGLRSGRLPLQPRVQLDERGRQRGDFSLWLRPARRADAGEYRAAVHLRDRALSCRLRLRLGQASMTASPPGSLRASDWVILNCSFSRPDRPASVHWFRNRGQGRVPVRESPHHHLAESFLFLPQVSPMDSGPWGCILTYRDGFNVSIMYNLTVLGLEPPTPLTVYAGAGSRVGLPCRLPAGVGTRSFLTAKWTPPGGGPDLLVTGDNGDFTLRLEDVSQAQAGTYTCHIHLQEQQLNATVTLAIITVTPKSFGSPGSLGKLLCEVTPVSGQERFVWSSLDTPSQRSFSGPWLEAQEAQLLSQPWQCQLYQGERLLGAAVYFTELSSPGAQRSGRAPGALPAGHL

T2: human LAG-3 expressed on cells (human, UniProt P18627 23-525)
T2 construct: whole, on cells; also called CD223
T2 sequence (looked up): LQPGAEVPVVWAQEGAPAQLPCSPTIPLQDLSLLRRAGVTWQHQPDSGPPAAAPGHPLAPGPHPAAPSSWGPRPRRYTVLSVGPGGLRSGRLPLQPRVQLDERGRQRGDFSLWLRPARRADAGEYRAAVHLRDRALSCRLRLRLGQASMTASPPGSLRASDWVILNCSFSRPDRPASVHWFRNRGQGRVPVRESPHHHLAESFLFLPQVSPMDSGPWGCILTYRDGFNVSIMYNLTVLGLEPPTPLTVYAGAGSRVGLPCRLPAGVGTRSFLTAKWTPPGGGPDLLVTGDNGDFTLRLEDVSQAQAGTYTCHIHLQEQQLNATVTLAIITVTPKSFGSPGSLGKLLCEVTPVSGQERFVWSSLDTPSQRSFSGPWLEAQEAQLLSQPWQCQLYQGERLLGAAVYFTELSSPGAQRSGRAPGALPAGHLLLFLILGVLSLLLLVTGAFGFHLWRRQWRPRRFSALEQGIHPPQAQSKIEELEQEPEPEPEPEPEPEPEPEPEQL

B1: P13G05 Fab (Fab, V domains shown)
VH: QVQLQQSGAELVKPGASVELSCTASGFNIRDTYMYWVKQRPEQGLEWIGRIDPANGNTKFDPKFQDRATMTADTSSNTAYLQLSSLTSEDTAVYYCTTYFYRYDVGGFDYWGQGTTLTVS
VL: EIVLTQSPALMAASPGEKVTITCSVSSSISSSNLHWYQQKSGTSPKLWIYGTSNLASGVPVRFSGSGSGTSYSLTISSMEAEDAATYYCQQWSSYPFTFGSGTKLEIK
notes: Murine Fab, periplasmic extract
B2: P13D04 Fab (Fab, V domains shown)
VH: QVQLQQSGAELVKPGASVKLSCTASGFNIKDNYMDWVKQRPEQGLEWIGKIDPANGNTKYDPKFQGKATITADTSSNTAYLQLSSLTSEDTAVYYCATYYYRYDVGGFDYWGQGTTLTVS
VL: B1 VL with E1D, Y37F, S44P
notes: as for B1
B3: P13F02 Fab (Fab, V domains shown)
VH: B2 VH with S7P, N32T, M34I, D35H, E46D, I48V, K50E, N57H
VL: B1 VL with I2N, Y37F
notes: as for B1
B4: P01C09 Fab (Fab, V domains shown)
VH: B2 VH with Q5K, N32T, D35Y, K50R, F64L, A79V, Y94F, A97V, T98I, Y100S
VL: B1 VL
notes: as for B1
B5: P05E01 Fab (Fab, V domains shown)
VH: B2 VH with Q1D, Q5V, Q6E, N28T, N32T, M34I, D35H, K50E
VL: B1 VL with E1D, Y37F, S78N, S93N, F97L, S101A, I107L
notes: as for B1
B6: P13F09 Fab (Fab, V domains shown)
VH: B2 VH with M34I, D35H, K50S, T69S, D90G, T98S, Y100F
VL: B1 VL with Y37F
notes: as for B1
B7: P14B07 Fab (Fab, V domains shown)
VH: B2 VH with S7P, M34I, D35H, K50S, T69S, A92T, T98S, Y100F
VL: B1 VL with I2N
notes: as for B1
B8: P13H05 Fab (Fab, V domains shown)
VH: B2 VH with S7P, N32T, M34I, D35H, K50E, G56D
VL: B1 VL with I2N, Y37F
notes: as for B1
B9: P13E02 Fab (Fab, V domains shown)
VH: B2 VH with S7P, A24V, N32T, M34I, D35H, K50E, T58S, D61A, K63R
VL: B1 VL with I2N, Y37F
notes: as for B1
B10: P13B11 Fab (Fab, V domains shown)
VH: B2 VH with S7P
VL: B1 VL with E1Q, Y37F
notes: as for B1
B11: P13C08 Fab (Fab, V domains shown)
VH: B2 VH with Q5K, M34I, D35H, K50S, T69S, T98S, Y100F
VL: B1 VL with E1D, I2V, L4M, S7T, Y37F
notes: as for B1
B12: P05E03 Fab (Fab, V domains shown)
VH: B1 VH with Q5K, Q6E
VL: B1 VL
notes: as for B1
B13: P15C02 Fab (Fab, V domains shown)
VH: B1 VH
VL: B1 VL with E1D, I2V, L4M, S7T
notes: as for B1
B14: P13G01 Fab (Fab, V domains shown)
VH: B1 VH with Q1E
VL: B1 VL with E1Q
notes: as for B1
B15: P13G04 Fab (Fab, V domains shown)
VH: B1 VH with Q1E, Q3K, Q5M, Q6E, V18A
VL: B1 VL with I2N, Y37F
notes: as for B1
B16: P14F01 Fab (Fab, V domains shown)
VH: B1 VH
VL: B1 VL with I2N, S94T
notes: as for B1
B17: P13A04 Fab (Fab, V domains shown)
VH: B1 VH with S7P, E89A
VL: B1 VL with E1D, S78N
notes: as for B1
B18: P15G05 Fab (Fab, V domains shown)
VH: B1 VH with Q1E
VL: B1 VL with F97L, S101A, I107L
notes: as for B1
B19: P14G01 Fab (Fab, V domains shown)
VH: B1 VH with Q5K, Q6E
VL: B1 VL with E1D, Y37F
notes: as for B1
B20: P13B01 Fab (Fab, V domains shown)
VH: B1 VH with Q1E, E19K, R30K, M34I, Q43R, D66G, R67T, M70I
VL: B1 VL with I2N
notes: as for B1
B21: P01A12 Fab (Fab, V domains shown)
VH: B2 VH with Q1E, N32T, D35Y, E46D, K50R, Y60F, A97S
VL: B1 VL with E1D
notes: as for B1
B22: P13D05 Fab (Fab, V domains shown)
VH: B1 VH with S7P, E46G
VL: B1 VL with Y37F, Q38R
notes: as for B1
B23: P13C06 Fab (Fab, V domains shown)
VH: B1 VH with L4M, Q5K, R30T, Y101D, R102K, F108C
VL: B1 VL with H35Y, Y37F, Q39H, E80D, D83N, S93R
notes: as for B1
B24: P13C10 Fab (Fab, V domains shown)
VH: B1 VH
VL: B1 VL with I2N, Y37F
notes: as for B1
B25: P13F06 Fab (Fab, V domains shown)
VH: B1 VH
VL: B1 VL with V3L
notes: as for B1
B26: P16D04 Fab (Fab, V domains shown)
VH: B1 VH
VL: B1 VL with I2N, F97L, S101A, I107L
notes: as for B1

Molecular target: T1, human LAG-3
Experiment: Fab phage display selection; periplasmic extracts screened by ELISA or flow cytometry
Excerpt: Anti-LAG-3 antibodies were identified by generation and selection of an immunized Fab phage display library. […] Per mouse, a Fab library was then generated by random-primed cDNA using total RNA as a template to amplify variable regions from mouse antibody genes. Heavy and kappa chain amplicons were combined and cloned into phagemid vectors. […] The 30 amino acid human LAG-3 peptide is a biotinylated peptide comprising the amino acid sequence of […] (SEQ ID NO: 199). Periplasmic extracts of selected Fab clones were then screened by ELISA or flow cytometry. Antibody sequencing and off-rate analysis were then performed on anti-LAG-3 Fabs.

Question: Does B1 bind?
Answer: binds

Question: Does B2 bind?
Answer: binds

Question: Does B3 bind?
Answer: binds

Question: Does B4 bind?
Answer: binds

Question: Does B5 bind?
Answer: binds

Question: Does B6 bind?
Answer: binds

Question: Does B7 bind?
Answer: binds

Question: Does B8 bind?
Answer: binds

Question: Does B9 bind?
Answer: binds

Question: Does B10 bind?
Answer: binds

Question: Does B11 bind?
Answer: binds

Question: Does B12 bind?
Answer: binds

Question: Does B13 bind?
Answer: binds

Question: Does B14 bind?
Answer: binds

Question: Does B15 bind?
Answer: binds

Question: Does B16 bind?
Answer: binds

Question: Does B17 bind?
Answer: binds

Question: Does B18 bind?
Answer: binds

Question: Does B19 bind?
Answer: binds

Question: Does B20 bind?
Answer: binds

Question: Does B21 bind?
Answer: binds

Question: Does B22 bind?
Answer: binds

Question: Does B23 bind?
Answer: binds

Question: Does B24 bind?
Answer: binds

Question: Does B25 bind?
Answer: binds

Question: Does B26 bind?
Answer: binds

Molecular target: T2, human LAG-3 expressed on cells
Experiment: flow cytometry, Fab periplasmic extract on Jurkat cells expressing human LAG-3 (FIGS. 1A-1C)
Procedure: The anti-LAG-3 Fabs from periplasmic extracts were tested for binding to LAG-3-expressing cells using flow cytometry. Briefly, wild type and human LAG-3-expressing Jurkat cells were plated at 2×10⁵ cells/well in sample buffer (PBS (Gibco, Cat #10010-015)+0.5% FBS (Gibco, Cat #10270-106)) in 96-well U-bottom plates (Sarstedt). 22 μl of anti-LAG-3 Fab periplasmic extract and 83 μl of diluted anti-c-myc antibody (Gentaur, Clone #9E10, Cat #04-cmyc-9E10) were incubated for 30 minutes at room temperature. 100 μl of the periplasmic extract/anti-c-myc mixture was added to cells and then incubated for one hour on ice. Cells were washed three times and then incubated with a goat anti-mouse APC (BD Biosciences, Cat #550826) for 30 minutes on ice. Cells were washed three times and then analyzed with a FACS machine (BD Accuri6).

Question: Does B1 bind?
Answer: binds

Question: Does B2 bind?
Answer: binds

Question: Does B3 bind?
Answer: binds

Question: Does B4 bind?
Answer: binds

Question: Does B6 bind?
Answer: binds

Question: Does B7 bind?
Answer: binds

Question: Does B8 bind?
Answer: binds

Question: Does B9 bind?
Answer: binds

Question: Does B10 bind?
Answer: binds

Question: Does B11 bind?
Answer: binds

Question: Does B13 bind?
Answer: binds

Question: Does B14 bind?
Answer: binds

Question: Does B15 bind?
Answer: binds

Question: Does B16 bind?
Answer: binds

Question: Does B17 bind?
Answer: binds

Question: Does B18 bind?
Answer: binds

Question: Does B19 bind?
Answer: binds

Question: Does B20 bind?
Answer: binds

Question: Does B21 bind?
Answer: binds

Question: Does B22 bind?
Answer: binds

Question: Does B23 bind?
Answer: binds

Question: Does B24 bind?
Answer: binds

Question: Does B25 bind?
Answer: binds

Question: Does B26 bind?
Answer: binds

Source: patent publication US20250206818A1 (AGENUS, published 2025)
